In PMC8329185 (2021) one finds koff data, which are given here for 1 molecule.

This experiment addresses His6-DNAJB1 (human, UniProt P25685 1-340). In words: SPR. A general note: SPR reads the build-up and loss of mass on a sensor chip optically.

Sequence of His6-DNAJB1 (P25685 whole entry): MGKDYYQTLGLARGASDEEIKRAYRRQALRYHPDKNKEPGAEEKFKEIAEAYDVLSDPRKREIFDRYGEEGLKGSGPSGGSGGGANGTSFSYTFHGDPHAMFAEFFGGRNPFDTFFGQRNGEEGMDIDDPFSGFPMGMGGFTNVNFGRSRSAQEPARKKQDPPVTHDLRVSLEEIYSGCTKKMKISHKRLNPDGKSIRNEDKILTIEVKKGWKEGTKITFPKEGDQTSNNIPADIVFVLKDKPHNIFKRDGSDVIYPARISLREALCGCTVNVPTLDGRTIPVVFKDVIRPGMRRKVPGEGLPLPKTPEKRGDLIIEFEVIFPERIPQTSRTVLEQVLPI

B1: GST-TrnSR (WT, without mCherry) (natural protein)
chain: MEGAKPTLQLVYQAVQALYHDPDPSGKERASFWLGELQRSVHAWEISDQLLQIRQDVESCYFAAQTMKMKIQTSFYELPTDSHASLRDSLLTHIQNLKDLSPVIVTQLALAIADLALQMPSWKGCVQTLVEKYSNDVTSLPFLLEILTVLPEEVHSRSLRIGANRRTEIIEDLAFYSSTVVSLLMTCVEKAGTDEKMLMKVFRCLGSWFNLGVLDSNFMANNKLLALLFEVLQQDKTSSNLHEAASDCVCSALYAIENVETNLPLAMQLFQGVLTLETAYHMAVAREDLDKVLNYCRIFTELCETFLEKIVCTPGQGLGDLRTLELLLICAGHPQYEVVEISFNFWYRLGEHLYKTNDEVIHGIFKAYIQRLLHALARHCQLEPDHEGVPEETDDFGEFRMRVSDLVKDLIFLIGSMECFAQLYSTLKEGNPPWEVTEAVLFIMAAIAKSVDPENNPTLVEVLEGVVRLPETVHTAVRYTSIELVGEMSEVVDRNPQFLDPVLGYLMKGLCEKPLASAAAKAIHNICSVCRDHMAQHFNGLLEIARSLDSFLLSPEAAVGLLKGTALVLARLPLDKITECLSELCSVQVMALKKLLSQEPSNGISSDPTVFLDRLAVIFRHTNPIVENGQTHPCQKVIQEIWPVLSETLNKHRADNRIVERCCRCLRFAVRCVGKGSAALLQPLVTQMVNVYHVHQHSCFLYLGSILVDEYGMEEGCRQGLLDMLQALCIPTFQLLEQQNGLQNHPDTVDDLFRLATRFIQRSPVTLLRSQVVIPILQWAIASTTLDHRDANCSVMRFLRDLIHTGVANDHEEDFELRKELIGQVMNQLGQQLVSQLLHTCCFCLPPYTLPDVAEVLWEIMQVDRPTFCRWLENSLKGLPKETTVGAVTVTHKQLTDFHKQVTSAEECKQVCWALRDFTRLFR
For orientation: koff means the rate constant with which the complex falls apart. Lower therefore signals slow dissociation. The molecule B1 registered a koff of 0.00014 s⁻¹.
